Reference: PMC7393090

Target: tau Venus BiFC constructs (UniProt P10636)
Assay: split reporter (BiFC, NanoBiT); Venus BiFC; co-culture of HEK293 cells transfected with the VN construct and cells transfected with the VC construct (50,000 cells each per ml, 48 h); flow cytometry, cells above 120 fluorescence units are positive; also run after treatment with anle138b 1 µM, EGCG 0.1 µM, fulvic acid 37 µM or dynasore 10 µM

percent of BiFC positive cells (co-culture): 3.9%
Substance: tau Venus BiFC constructs (from UniProt P10636 1-758) (natural protein)
